Reference: patent publication US20190112365A1 (EISAI R AND D MANAGEMENT, published 2019)
Values joined by “and” are separate entries in the source; they are usually repeats but may differ in a detail not shown here. Identical values can stand only once.

T1: HVPGG site of Tau (15-mer array peptides containing HVPGG) (human)
T1 peptide: HVPGG


Key:
[1] = target: T2, Human Tau 2N4R, wild type, recombinant full length (human, UniProt P10636 2-758); test: SPR BIAcore, anti-human capture, monomeric Tau, 1:1 Langmuir
T2 construct: Full length 2N4R isoform; monomer in SPR and ELISA; heparin-induced aggregates or seeds in the functional assays; also called Tau441; Tau-441
T2 sequence (P10636 other isoform, or with tags, fused parts or gaps limits assumed): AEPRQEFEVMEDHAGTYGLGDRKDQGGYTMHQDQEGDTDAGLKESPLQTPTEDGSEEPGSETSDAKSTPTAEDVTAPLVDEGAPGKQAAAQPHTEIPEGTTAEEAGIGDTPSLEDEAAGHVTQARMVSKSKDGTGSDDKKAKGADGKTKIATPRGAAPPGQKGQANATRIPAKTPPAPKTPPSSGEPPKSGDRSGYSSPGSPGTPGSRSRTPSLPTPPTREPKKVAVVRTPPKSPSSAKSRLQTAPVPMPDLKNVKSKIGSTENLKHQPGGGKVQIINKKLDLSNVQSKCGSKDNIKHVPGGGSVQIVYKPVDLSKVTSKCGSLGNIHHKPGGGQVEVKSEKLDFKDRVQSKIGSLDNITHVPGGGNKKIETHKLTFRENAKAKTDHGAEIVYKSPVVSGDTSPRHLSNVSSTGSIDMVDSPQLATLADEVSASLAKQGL
Method: (§1) All experiments were performed using a BIAcore™ T-100 instrument (GE Healthcare). 10 μL anti-human IgG (monoclonal mouse anti-human Fc) from human antibody capture kit (GE Healthcare) was diluted to 25 μL/mL in 200 μL final immobilization buffer (10 mM sodium acetate, pH 5.0). The flow rate was set to 5 μL/min, flowpath 1. Fifty μL N-hydroxysuccinamide (NETS) and 50 μL 1-ethyl-3-(3-dimethylaminopropyl) carbidiimide (EDC) were mixed and injected for 420 sec to activate the CM5 chip surface. The diluted antibody was injected for 360 seconds followed by 1 M ethanolamine for 420 seconds. The flowpath was then switched to flowpath 2. A new EDC/NHS mixture was prepared and the procedure was repeated for flow cell 2. The surface was conditioned by 2 injections of 30 sec using flowpath 1, 2 at 30 μL/min of 3M MgCl₂. For the anti-mouse surface, 10 μL anti-mouse IgG (polyclonal rabbit anti-mouse IgG) from mouse antibody capture kit (GE Healthcare) was diluted to 30 μL/mL in 324 μL final immobilization buffer (10 mM sodium acetate, pH 5.0). The flow rate was set to 5 μL/min, flowpath 3. Fifty μL NHS and 50 μL EDC were mixed and injected for 420 sec to activate the chip surface. The diluted antibody was injected for 420 sec. 1 M ethanolamine was injected for 420 sec. Flow path was switched to flowpath 4. A new EDC/NHS mixture was prepared and the procedure was repeated for flow cell 4. The surface was conditioned by 2 injections of 30 sec using flowpath 3, 4 at 30 μL/min of 10 mM glycine, pH 1.7.
Tau binding for humanized mAbs was analyzed by BIAcore™ in two different formats. The first format was performed as above, i.e. mAbs were captured with an immobilized species-specific anti-Fc antibody. […] In the second format, biotinylated mAbs were captured on a streptavidin-coated chip. This latter format allowed direct comparison of Tau binding affinity between humanized and the parental mouse antibody since the capture method was identical.
The final humanized mAbs were analyzed by BIAcore™ to determine the kₐ, kd, and KD for binding to Tau as above (Table 10).

[2] = target: T2, Human Tau 2N4R, wild type, recombinant …; test: SPR, streptavidin capture; against 7G6-HCzu24 and 7G6-HCzu25 mAbs
Method: (§2) 400 μg of each antibody was diluted to 2 mg/mL and buffer-exchanged into 0.1 M sodium bicarbonate, pH 8.3 using 0.5 mL Zeba™ 40 kDa MWCO desalting columns (Thermo). NHS-PEG4-biotin, prepared immediately before use by dissolving in water to a 20 mM final stock concentration, was added to antibodies at a 5:1 molar ratio (biotin:MAb) and conjugated for 1 hr at room temperature. Excess biotin was removed by two sequential buffer exchanges into 1×DPBS using 0.5 mL Zeba™ 40 kDa MWCO desalting columns. For the BIAcore™ assay, antibodies were diluted to 2 μg/mL in PBS-P+/0.2% BSA (the same preparation used for the running buffer), centrifuged at 14,000 g for 5 min at room temperature, and the supernatant transferred to a new tube. Injection time was subsequently determined for each antibody to achieve a capture level of ˜225 RU.
(§3) Biotinylated humanized and mouse mAbs were captured on a streptavidin-coated chip and kₐ, kd, and KD were determined for binding to Tau (Table 11). […] The affinity of 7G6-HCzu8-LCzu6, 7G6-HCzu24-LCzu15, 7G6-HCzu24-LCzu18, 7G6-HCzu25-LCzu15, and 7G6-HCzu25-LCzu18 were all similar.

[3] = target: T2, Human Tau 2N4R, wild type, recombinant …; test: SPR BIAcore, biotinylated mAb on streptavidin (CAP) chip, single cycle, 1:1 Langmuir
Method: as §2, §3

[4] = target: T2, Human Tau 2N4R, wild type, recombinant …; test: SPR, streptavidin capture; against ms7G6
Method: as §2, §3

[5] = target: T2, Human Tau 2N4R, wild type, recombinant …; test: SPR BIAcore, anti-human Fc capture, multi-cycle, 1:1 Langmuir, average of flow cells
Method: A 0 nM Tau protein solution was prepared by adding 3 mL Assay Running Buffer to labeled 5 mL tube. Analyte dilutions were transferred to labeled 4 mL plastic vials and capped with type 5 caps, vortexed briefly to remove any air bubbles adhered to tube walls or bottom, and placed in Sample and Reagent Rack 1. For chip conditioning analyte sample, 5 μL of 1 μM Tau protein solution supernatant was removed and diluted to 500 μL in Assay Buffer in a 7 mm plastic vial, capped, vortexed briefly to dislodge adhered air bubbles, and placed in Sample and Reagent Rack 1. Humanized antibodies were captured on flow cells 2, 3, and 4 sequentially at a flow rate of 10 μL/min for a contact time of 36 sec. Dilutions of Tau protein were injected over all 4 flow cells at a flow rate of 30 μL/min for a contact time of 300 sec. Dissociation was followed for 1800 sec. Following each cycle, the surface was regenerated by two sequential injections of 30 sec at 30 μL/min of 3 M MgCl₂ over all four flow cells. After the run, kinetic data fitting was performed using a 1:1 Langmuir model.
The affinity of recombinant human wild-type 2N4R Tau protein to 7G6-HCzu25LCzu18 antibody was determined using an antibody-capture format assay. Following capture of 7G6-HCzu25LCzu18 antibody, human Tau protein was injected over the ligand surface for 300 sec, followed by observation and measurement of dissociation for 1800 sec. After each antibody capture, Tau protein binding, and dissociation cycle, the chip surface was regenerated to the anti-human antibody capture surface using 3M MgCl₂, as required by the manufacturer. Tau protein was analyzed in a concentration range from 100 nM to 0.046 nM (3-fold diluted). The assay was performed in multi-cycle mode, such that a dissociation was performed for each tau protein injection. Each ligand was analyzed on all three flow cells (fc2, fc3, and fc4) in triplicate, in order to eliminate any flow cell-specific effects.
Binding data was double-referenced, meaning referenced to both fc1 with no ligand bound and to buffer analyte injections (0 nM Tau protein). […]

[6] = target: T1, HVPGG site of Tau (15-mer array …); test: peptide microarray; HVPGG site of the fourth repeat region against HKPGG (repeat region 3)
Method: (§4) The diluted antibody was incubated on the chip for 16 hours at 4° C. with shaking at 140 rpm. Primary antibody was removed and the chip was washed in PBS (pH 7.4)/0.05% Tween 20. Wash buffer was removed and goat anti-mouse IgG (H+L) DyLight™680 (1:5000) and an anti-HA tag DyLight™ 800 (1:2000) in the same buffer as the primary antibody was then incubated for 45 minutes at room temperature on the chip. Detection antibody was removed and the chip was washed once again as previously. Fluorescence images were acquired on the LI-COR Odyssey™ Imaging System and the microarray data was finally analyzed using the PepSlide™ Analyser software.

[7] = target: T1, HVPGG site of Tau (15-mer array …); test: peptide microarray; HVPGG site of the fourth repeat region against HQPGG (repeat region 1)
Method: as §4

[8] = target: T1, HVPGG site of Tau (15-mer array …); test: peptide microarray; HVPGG site of the second repeat region against HKPGG (repeat region 3)
Method: as §4

[9] = target: T1, HVPGG site of Tau (15-mer array …); test: peptide microarray; HVPGG site of the second repeat region against HQPGG (repeat region 1)
Method: as §4

[10] = target: T2, Human Tau 2N4R, wild type, recombinant …; test: SPR BIAcore, mAb captured by anti-human IgG, Tau flowed, 1:1 Langmuir
Method: as §1
Binding of humanized and mouse antibodies were analyzed by surface plasmon resonance (BIAcore™) to determine their relative association rates (kₐ), dissociation rates (kd), and equilibrium binding constants (KD). Anti-mouse or anti-human antibodies were immobilized on a CM5 chip and sample mAbs were captured on the chip. 2N4R Tau was flowed over the chip and binding observed. The binding constants kₐ, kd, and KD were determined using a 1:1 Langmuir fitting model.

Row | Kd [1] [nM] | koff [1] [s⁻¹] | kon [1] [M⁻¹ s⁻¹] | fold drop in affinity [2] [fold] | Kd [3] [nM] | koff [3] [s⁻¹] | kon [3] [M⁻¹ s⁻¹] | fold drop in affinity [4] [fold] | Kd [5] | koff [5] | kon [5] | fold preference in binding (average signal intensities) [6] [fold] | fold preference in binding (average signal intensities) [7] [fold] | fold preference in binding (average signal intensities) [8] [fold] | fold preference in binding (average signal intensities) [9] [fold] | Kd [10] [nM] | koff [10] [s⁻¹] | kon [10] [M⁻¹ s⁻¹] | Binder
1 | 0.13 | 0.00013 | 985000 | – | 0.0998 | 0.00027 | 2.71e+06 | ~1.4 | – | – | – | – | – | – | – | – | – | – | 7G6-HCzu25-LCzu15 (antibody, human IgG1, kappa, humanized, human IgG1 kappa) heavy: not shown light: DVQMTQSPSSLSASVGDRVTITCRSSQSILHSNGNTYLEWYQQKPGKAPKLLISKVSNRFSGVPSRFSGSGSGTDFTLTISSLQPEDFATYYCFQGSHVPFTFGQGTKLEIKRTVAAPSVFIFPPSDEQLKSGTASVVCLLNNFYPREAKVQWKVDNALQSGNSQESVTEQDSKDSTYSLSSTLTLSKADYEKHKVYACEVTHQGLSSPVTKSFNRGEC
2 | 0.09 | 9e-05 | 948000 | – | 0.0797 | 0.000304 | 3.81e+06 | ~1.4 | – | – | – | – | – | – | – | – | – | – | 7G6-HCzu24-LCzu18 (antibody, human IgG1, kappa, humanized, human IgG1 kappa) heavy: not shown light: DIQMTQSPSSLSASVGDRVTITCRSSQSILHSNGNTYLEWYQQKPGKAPKLLISKVSNRFSGVPSRFSGSGSGTDFTLTISSLQPEDFATYYCFQGSHVPFTFGQGTKLEIKRTVAAPSVFIFPPSDEQLKSGTASVVCLLNNFYPREAKVQWKVDNALQSGNSQESVTEQDSKDSTYSLSSTLTLSKADYEKHKVYACEVTHQGLSSPVTKSFNRGEC
3 | 0.13 | 0.00014 | 1.11e+06 | – | 0.0881 | 0.000307 | 3.5e+06 | ~1.4 | 0.0657 nM and 0.0659 nM and 0.0645 nM | 0.000126 s⁻¹ (2×) and 0.000123 s⁻¹ | 1.92e+06 M⁻¹ s⁻¹ and 1.91e+06 M⁻¹ s⁻¹ | 119 | 77 | 100 | 65 | – | – | – | 7G6-HCzu25-LCzu18 (antibody, human IgG1, kappa, humanized, human IgG1 kappa; also called 7G6-zuHC25-zuLC18; 7G6-HCzu25-LCzu18-HEK) heavy: not shown light: DIQMTQSPSSLSASVGDRVTITCRSSQSILHSNGNTYLEWYQQKPGKAPKLLISKVSNRFSGVPSRFSGSGSGTDFTLTISSLQPEDFATYYCFQGSHVPFTFGQGTKLEIKRTVAAPSVFIFPPSDEQLKSGTASVVCLLNNFYPREAKVQWKVDNALQSGNSQESVTEQDSKDSTYSLSSTLTLSKADYEKHKVYACEVTHQGLSSPVTKSFNRGEC

Second part, the binder before the results:

Row | Binder | Kd [1] [nM] | koff [1] [s⁻¹] | kon [1] [M⁻¹ s⁻¹] | fold drop in affinity [2] [fold] | Kd [3] [nM] | koff [3] [s⁻¹] | kon [3] [M⁻¹ s⁻¹] | fold drop in affinity [4] [fold] | Kd [5] | koff [5] | kon [5] | fold preference in binding (average signal intensities) [6] [fold] | fold preference in binding (average signal intensities) [7] [fold] | fold preference in binding (average signal intensities) [8] [fold] | fold preference in binding (average signal intensities) [9] [fold] | Kd [10] [nM] | koff [10] [s⁻¹] | kon [10] [M⁻¹ s⁻¹]
4 | 7G6-HCzu23-LCzu15 (antibody, human IgG1, kappa, humanized, human IgG1 kappa) heavy: not shown light: DVQMTQSPSSLSASVGDRVTITCRSSQSILHSNGNTYLEWYQQKPGKAPKLLISKVSNRFSGVPSRFSGSGSGTDFTLTISSLQPEDFATYYCFQGSHVPFTFGQGTKLEIKRTVAAPSVFIFPPSDEQLKSGTASVVCLLNNFYPREAKVQWKVDNALQSGNSQESVTEQDSKDSTYSLSSTLTLSKADYEKHKVYACEVTHQGLSSPVTKSFNRGEC | 0.25 | 0.00039 | 1.61e+06 | ~2 | 0.152 | 0.000332 | 2.18e+06 | – | – | – | – | – | – | – | – | – | – | –
5 | 7G6-HCzu24-LCzu15 (antibody, human IgG1, kappa, humanized, human IgG1 kappa) heavy: not shown light: DVQMTQSPSSLSASVGDRVTITCRSSQSILHSNGNTYLEWYQQKPGKAPKLLISKVSNRFSGVPSRFSGSGSGTDFTLTISSLQPEDFATYYCFQGSHVPFTFGQGTKLEIKRTVAAPSVFIFPPSDEQLKSGTASVVCLLNNFYPREAKVQWKVDNALQSGNSQESVTEQDSKDSTYSLSSTLTLSKADYEKHKVYACEVTHQGLSSPVTKSFNRGEC | 0.13 | 0.00011 | 809000 | – | 0.0898 | 0.000487 | 5.42e+06 | ~1.4 | – | – | – | – | – | – | – | – | – | –
6 | 7G6-HCzu8-LCzu6 (antibody, human IgG1, kappa, V domains shown, N-terminal pyroglutamic acid, humanized, human IgG1 kappa; also called 7G6-HCzu8-LCzu6-HEK; ATCC PTA-124523) VH: QVQLVQSGAEVKKPGASVKVSCKASGYTFTTYWITWVRQAPGQGLEWMGDIYPGSSISNYAQKFQGRVTMTRDTSTSTVYMELSSLRSEDTAVYYCAREDGYDAWFAYWGQGTLVTVSS VL: DVVMTQSPLSLPVTLGQPASISCRSSQSILHSNGNTYLEWYQQRPGQSPRLLISKVSNRFSGVPDRFSGSGSGTDFTLKISRVEAEDVGVYYCFQGSHVPFTFGQGTKLEIKR | 0.15 | 0.00022 | 1.49e+06 | – | 0.0915 | 0.000258 | 2.82e+06 | ~1.4 | – | – | – | 95 | 99 | 104 | 108 | 0.0968 | 0.00021 | 2.17e+06
